US20100129347A1, “HERPES VIRUS INFECTION INHIBITOR, METHOD FOR INHIBITING INFECTION WITH HERPES VIRUS, AND USE THEREOF” (Osaka University, priority 2007, published 2010)

Test system: HSV-1
Assay: HSV-1-GFP infection of CHO-K1 cells transfected with human PILR, ratio of infected cells by flow cytometry
Format: cell-based
Settings: various concentrations, FIG. 3
Procedure: CHO-K1 cells were transiently transfected in a 10% FCS-containing F-12 culture medium using Lipofectamine 2000 (produced by Invitrogen) or GeneJuice (produced by Novagen). 1 day after the transfection, the 10% FCS-containing F-12 culture medium was replaced with a 1% FCS-containing F-12 culture medium. 2 days after the transfection, the transfectant was mixed with HSV-GFP and centrifuged at 32° C. at 2500 rpm for 2 hours. Thus, the transfectant was infected with HSV-GFP.
Human PILR was transiently transfected to the CHO-K1 cells by using pMx-IRES-DsRed expression vector, and the CHO-K1 cells were caused to be infected with HSV-1 by using HSV-1-GFP in the presence of anti-human PILR mAb with various concentrations or control mAb. The ratio of HSV-1-infected cells was analyzed by flow cytometry.
The CHO-K1 cells to which PILR had been transfected were caused to be infected with HSV-1 in the presence of PILR-Ig with various concentrations or Ig-fused protein without PILR that was a control. The ratio of the infected cells was analyzed by flow cytometry. Since PILR-Ig directly binds to gB of HSV-1, it is considered that there is a possibility that PILR-Ig blocks interaction between HSV-1 and PILR on the surface of a cell.

B1: control Ig-fused protein: Ig-fused protein without PILR used as control; purified human CD200-Ig fusion protein (protein)
chain: QVQVVTQDEREQLYTPASLKCSLQNAQEALIVTWQKKKAVSPENMVTFSENHGVVIQPAYKDKINITQLGLQNSTITFWNITLEDEGCYMCLFNTFGFGKISGTACLTVYVQPIVSLHYKFSEDHLNITCSATARPAPMVFWKVPRSGIENSTVTLSHPNGTTSVTSILHIKDPKNQVGKEVICQVLHLGTVTDFKQTVNKG
modifications: left off: a dimerising Fc or GST
blocking of HSV-1 infection of PILR-transfected CHO-K1 cells: not blocked
